From patent US20080261267A1, “Cellulases from Rumen” (priority 2004, published 2008)

Columns and labels:
Type in all cases: biochemical
[1] = Cation dependence; conditions: 10 to 100 mM
Protocol: FIG. 3 represents Table 3 giving an overview over the biochemical properties of the cellulases according to the invention. Reaction was performed at the optimum pH and temperature for each done using CMC as substrate. […] The values for clones pBKRR.1, 9, 11, 13, 14, 16 and 22 are depicted. For each clone the following data are given: • maximum pH at which the remaining activity after 24 h incubation at the indicate pH is >90% (column “Stable at pH”). […] Activity was measured after 2 h incubation and compared with a control reaction in buffer lacking dimethylsulfoxide, • detergent resistance given by the remaining activity in the corresponding buffer (optimum pH) containing the indicate detergent at a concentration for 0 to 3%. […] The effect of mono- (Na^+, K^+, NH4^+, and divalent cations (Ca^2+, Mn^2+, Mg^2+, Sr^2+, Fe^2+, Cu^2+, Ni^2+, Co^2+, Zn^2+) was first examined by treating the enzyme with chelating agents (EDTA and EGTA) to remove any endogenous divalent cations, followed by adding cations to the reaction mixture.
[…] Inhibitors such as N-ethylmalemide, iodoacetate and p-chloromercuribenzoate at concentration from 1-5 mM were incubated in the presence of the enzyme for 30 min (30° C.) prior to the addition of the substrate (CMC). The effects of detergents on the endoglucanase activity was analysed by adding of 1-3% (wt/vol) detergent to the enzyme solution. In all cases, the enzyme activity was assayed in triplicate using the standard cellulose assay described above and the residual activity was expressed as percent of the control value (without addition of chemicals).

[2] = TLC analysis of hydrolysis products; conditions: pH 5.6, 50° C.
Source text: FIG. 7 depicts the result of thin layer chromatography TLC analysis of products of CMC hydrolyzed by endoglucanases derived from a rumial genomic DNA library. The methods used for cellulase and substrate preparation, hydrolysis, TLC, and visualization are described in Example 5. The hydrolysis products glucose, cellobiose, cellotriose are shown an the right side. […] Different pattern was found when using short-chain beta-1,4-glucans.
The products formed by hydrolysis of cellulose-based substrates (cellobiose, cellotetraose, cellopentaose, cellulose and carboxymethyl cellulose) were analysed by thin-layer chromatography (TLC). Solutions containing 20 μg of E. coli cell lysate proteins and 0.2% (wt/vol) substrate in 50 mM acetate buffer (pH 5.6) were incubated at 50° C. until maximum conversion was achieved. The reactions were terminated by heating the preparation for 5 min at 95° C. and hydrolysis products were separated by TLC on silica gel plates (Merck, Darmstadt, Germany) by using a mixture chloroform, glacial acetic acid, and water (6:14:1) as the solvent. […] Sugars were visualized by heating 105° C. for 15 min the plates which were previously sprayed with a reagent containing amine (2 ml), diphenylamine (2 g), acetone (100 ml) and 85% H3PO4 (15 ml).

[3] = Specific activity of purified endoglucanases; conditions: purified to homogeneity; pH 5.6 and 50° C.; CMC as substrate
Protocol: FIG. 2 represents Table 2 which contains the data obtained by purification of endoglucanases of seven clones (pBKRR.1, 9, 11, 13, 14, 16 and 22) with respect to the specific activity. […] They were purified to homogeneity and their specific activity was estimated at pH 5.6 and 50° C., using CMC as substrate.
The endoglucanases were recovered from 1-liter shaked flask fermentations, in Luria-Bertany broth plus 50 μg of Kanamycin per ml. One gram of fermentation broth was mixed with 10 ml of standard buffer in a 50-ml Falcon tube. The solution was vortexed and then incubated with DNase I grade II, for 30-45 min, and then sonicated for 4 min total time. A sample of the soluble fraction was separated from insoluble debris by centrifugation (10,000×g, 30 min, 4° C.) and proteins were precipitated by addition of 80% chilled acetone (−20° C.). Proteins were resuspended in standard buffer and stored at −20° C. at a concentration of 5 mg/ml until use. The amount of protein expression was examined using SDS-PAGE with 10-12% acrylamide. […] The gel region containing the active cellulase, detected in a parallel track by activity staining (using Ostazin brillian-blue carboxymethyl cellulose) was excised, suspended in two volumes of standard fuffer and homogenized in a glass tissue homogenizer. […]
The standard cellulase activity was determined in a continuous spectrophotometric assay by measuring the release of reducing sugars from the 4% (wt/vol carboxymethyl cellulose (CMC) in 0.5-ml reaction mixtures containing 50 mM sodium acetate buffer, pH 5.6, at 40° C., using the dinitrosalycilic acid (DNS) method (Bernfeld, P. (1955) Amilases and b. In: Colowick S P, Kaplan N O (eds). Methods in Enzymology, Academic Press, New York pp. 133-155). The reaction was performed in 0.5 ml scale containing 20 mg substrate and 5 mg lyophilised cells or 0.1 mg purified enzyme. Reactions were allow to proceed for a time period of 5-30 min after which the samples were centrifuge (10,000×g, 3 min). […] Finally, each well was diluted with 150 μl water and the absorbance at 550 nm was measured. […]

[4] = Thermal activity and thermostability; conditions: at the pH optima; CMC
Protocol: (§1) FIG. 3 represents Table 3 giving an overview over the biochemical properties of the cellulases according to the invention. Reaction was performed at the optimum pH and temperature for each done using CMC as substrate. […] The values for clones pBKRR.1, 9, 11, 13, 14, 16 and 22 are depicted. For each clone the following data are given: • maximum pH at which the remaining activity after 24 h incubation at the indicate pH is >90% (column “Stable at pH”). […] Activity was measured after 2 h incubation and compared with a control reaction in buffer lacking dimethylsulfoxide, • detergent resistance given by the remaining activity in the corresponding buffer (optimum pH) containing the indicate detergent at a concentration for 0 to 3%. […]
(§2) FIG. 4 a-c represent the results of the determination of pH and temperature optima showing graphically views of the pH-dependence activity and temperature-dependence activity of the polypeptides according to the invention. The pH optima of rumial endoglucanases were measured under conditions described in Example 5: 4% CMC, 0.5 mL of 50 mM buffer at the corresponding pH and 0.1 mg E. coli cell lysates, for 5-30 min, at 40° C. Effect of temperature on endoglucanase activity was measured in 50 mM sodium acetate buffer pH 5.6. […]

[5] = pH-dependent activity and pH stability; conditions: cell lysates; CMC; pH 3.5 to 10.5 at 40° C.
Protocol: as §1, §2

B1: pBKRR.11: rumen endo-beta-1,4-glucanase, sequences FIG. 14/22 (protein)
chain: MRILKLFFIALITAAPIFSYAQTVDDMKSVFVDAHTWTASIKMGWNLGNALECQTGWNDKAFCWNPANNFNAETSWGNPKTTKEMLQAVREAGFDAVRIPVNWGAHISDESTCTIDAAWMNRVQEVVDWALQLGFKVLLNTHHEYWLEWHPTYDREQANNNKLAKIWMQVANRFKDYGPDLAFAGINEVHLDGKWNVPTEENTAVTNSYNQTFVNTVRATGGNNLYRNLVVQCYSCNPDYGLTGFVVPADKVENRLSIEYHYYRPWDYAGDAPKYYYWGEAYKQYGEVSTADNEAKVNADFARYKAAWYDKGLGVIMGEWGASQHYQVESKAKQLENLYYHFKTVREAAQKNNIATFVWDNNACGNGGDKFGIFDRNDNMSVAFPEALNAIQEASGQTVVDYSRQALQPSVVYQGDELMNWGEGKQLIIAGSKFAYFTAESKLMVTLDAEPGADYDMLQFAYGDWKSKPLMIISGRSYKGQVEPSKINGSRNTYTLFIGFKESSLNQLKDKGITLQGHGLRLRNVVVMPEGLVLGL
modifications: Description of sequence sequence derived from genomic DNA library from rumen ecosystem, particularly amino acid sequence of clones pBKRR 11, 10 and 12; RR10=RR11=RR12; (see Figure 22)
stimulatory effect of Mg^2+ ([1]; chloride salt): 127%
influence of mono- and divalent cations on activity ([1]; chloride salts, after EDTA and EGTA treatment): not influenced
main hydrolysis products of CMC [2]: cellobiose and cellotriose
specific activity [3]: 6.42 µmol/min/mg
temperature of improved activity and thermostability [4]: 50 °C
pH of highest (maximal) activity [5]: 4.5 pH
